Reference: publication PMC4915977 (Current biology : CB, 2016)

How the values were obtained:
[1] = target: Mst1 SARAH domain with a C-terminal Cys, AEDANS-labelled (UniProt Q13043); assay: FRET or BRET
[2] = target: Mst2 SARAH domain with a C-terminal Cys, AEDANS-labelled (UniProt Q13188); assay: FRET or BRET
[3] = target: T1, HA-tagged Mst2, full-length (UniProt Q13188 1-491); assay: co-IP
T1 sequence (looked up): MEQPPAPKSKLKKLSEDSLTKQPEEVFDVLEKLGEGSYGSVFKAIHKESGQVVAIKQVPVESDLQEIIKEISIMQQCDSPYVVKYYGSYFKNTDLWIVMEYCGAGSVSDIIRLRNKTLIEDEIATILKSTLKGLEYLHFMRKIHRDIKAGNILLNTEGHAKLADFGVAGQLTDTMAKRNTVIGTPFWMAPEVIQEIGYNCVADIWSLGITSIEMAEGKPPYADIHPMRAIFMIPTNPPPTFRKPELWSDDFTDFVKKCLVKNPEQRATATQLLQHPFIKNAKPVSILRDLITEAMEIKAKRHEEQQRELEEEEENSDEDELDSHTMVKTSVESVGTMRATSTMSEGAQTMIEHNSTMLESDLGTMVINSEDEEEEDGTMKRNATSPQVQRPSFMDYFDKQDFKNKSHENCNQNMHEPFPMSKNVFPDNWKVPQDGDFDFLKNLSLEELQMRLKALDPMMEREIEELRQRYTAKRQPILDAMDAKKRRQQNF

Mst1 SARAH domain with a C-terminal Cys, AEDANS-labelled (from UniProt Q13043 433-480) (domain or fragment)
Kd [1]: 6.5 µM

Mst1 SARAH domain, unlabeled (from UniProt Q13043 433-480) (domain or fragment)
Kd [2]: 0.72 µM

Mst2-LW SARAH domain, unlabeled (from UniProt Q13188 437-484) (domain or fragment)
Kd [2]: 4.3 µM

B1: Myc-tagged Mst1, full-length (1-487) (natural protein, UniProt Q13043 1-487, looked up)
chain: METVQLRNPPRRQLKKLDEDSLTKQPEEVFDVLEKLGEGSYGSVYKAIHKETGQIVAIKQVPVESDLQEIIKEISIMQQCDSPHVVKYYGSYFKNTDLWIVMEYCGAGSVSDIIRLRNKTLTEDEIATILQSTLKGLEYLHFMRKIHRDIKAGNILLNTEGHAKLADFGVAGQLTDTMAKRNTVIGTPFWMAPEVIQEIGYNCVADIWSLGITAIEMAEGKPPYADIHPMRAIFMIPTNPPPTFRKPELWSDNFTDFVKQCLVKSPEQRATATQLLQHPFVRSAKGVSILRDLINEAMDVKLKRQESQQREVDQDDEENSEEDEMDSGTMVRAVGDEMGTVRVASTMTDGANTMIEHDDTLPSQLGTMVINAEDEEEEGTMKRRDETMQPAKPSFLEYFEQKEKENQINSFGKSVPGPLKNSSDWKIPQDGDYEFLKSWTVEDLQKRLLALDPMMEQEIEEIRQKYQSKRQPILDAIEAKKRRQQNF
level of heterodimers relative to homodimers [3]: ~60%
